# Reference: FireProtDB (doi:10.1006/jmbi.1999.2569)
# Conditions: Bacillus amyloliquefaciens; pH 6.3; Thermal; DSC; MES 50 mM; whole UniProt chain shown
protein,measurement,value
"Ribonuclease wild type, P00648 (protein) MMKMEGIALKKRLSWISVCLLVLVSAAGMLFSTAAKTETSSHKAHTEAQVINTFDGVADYLQTYHKLPDNYITKSEAQALGWVASKGNLADVAPGKSIGGDIFSNREGKLPGKSGRTWREADINYTSGFRNSDRILYSSDWLIYKTTDHYQTFTKIR",Tm,54.1 °C
